Experimental data from publication PMC3846833.

Biological target: recombinant myostatin (R&D Systems) (UniProt O14793)
Assay: SPR; Biacore 3000, CM5 chip, about 2000 RU of ligand (ActRIIB-Fc or myostatin) amine-coupled by EDC/NHS; analyte 6.25-100 nM in HBS-EP (0.01 M HEPES pH 7.4, 0.15 M NaCl, 3 mM EDTA, 0.005% P20); 21°C, 30 µL/min; association 180 s, dissociation 300 s

UniProt O14793, sequence (O14793 267-375): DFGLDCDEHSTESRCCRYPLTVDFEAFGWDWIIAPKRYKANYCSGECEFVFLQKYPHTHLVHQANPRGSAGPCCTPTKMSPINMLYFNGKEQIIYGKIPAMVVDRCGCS

- Kd: 0.0979 nM
- koff: 4.32e-06 s⁻¹
- kon: 44100 M⁻¹ s⁻¹
Substance: recombinant putative mature sheep myostatin splice variant (rMSV, aa 275-321) (domain or fragment)
